Where two headings read alike, the source gives them in different places.
Legend:
[1] = biological target: PRRSV viral lysate (Porcine Reproductive and Respiratory Syndrome Virus); experiment: ELISA, plate coated with 1.56 ng PRRSV viral lysate, 1 µg antibody
[2] = biological target: PRRSV viral lysate (Porcine Reproductive and Respiratory Syndrome Virus); experiment: ELISA, plate coated with 3.13 ng PRRSV viral lysate, 1 µg antibody
[3] = biological target: PRRSV viral lysate (Porcine Reproductive and Respiratory Syndrome Virus); experiment: ELISA Test 1, plate coated with viral lysate, antibody diluted 1:4000, Group 1
[4] = biological target: porcine pseudorabies virus lysate; experiment: as above
[5] = biological target: porcine coronavirus lysate; experiment: as above
[6] = biological target: PRRSV viral lysate (Porcine Reproductive and Respiratory Syndrome Virus); experiment: ELISA, plate coated with 0.78 ng PRRSV viral lysate, 1 µg antibody
[7] = biological target: PRRSV viral lysate (Porcine Reproductive and Respiratory Syndrome Virus); experiment: ELISA, plate coated with 12.50 ng PRRSV viral lysate, 1 µg antibody
[8] = biological target: PRRSV viral lysate (Porcine Reproductive and Respiratory Syndrome Virus)
[9] = biological target: PRRSV viral lysate (Porcine Reproductive and Respiratory Syndrome Virus); experiment: ELISA Test 1, plate coated with viral lysate, antibody diluted 1:4000, Group 2
[10] = biological target: porcine pseudorabies virus lysate; experiment: as above
[11] = biological target: porcine coronavirus lysate; experiment: as above
[12] = biological target: PRRSV viral lysate (Porcine Reproductive and Respiratory Syndrome Virus); experiment: ELISA, plate coated with 25.00 ng PRRSV viral lysate, 1 µg antibody
[13] = biological target: PRRSV viral lysate (Porcine Reproductive and Respiratory Syndrome Virus); experiment: ELISA Test 2, plate coated with viral lysate, antibody diluted 1:4000
[14] = biological target: porcine coronavirus lysate; experiment: as above
[15] = biological target: PRRSV viral lysate (Porcine Reproductive and Respiratory Syndrome Virus); experiment: ELISA, plate coated with 50.00 ng PRRSV viral lysate, 1 µg antibody
[16] = biological target: PRRSV viral lysate (Porcine Reproductive and Respiratory Syndrome Virus); experiment: ELISA, plate coated with 6.25 ng PRRSV viral lysate, 1 µg antibody

B1: anti-PRRSV antibody 142 (antibody, V domains shown)
VH: EVQRVESGPGLVKPSQSLSLTCTVTGYSITNDYAWNWIRQFPGNKLEWMGYISYSGSTSYNPYLKSRISITRDTSKNQFFLQLNSVPTEDTATYYCARSTYGNYGYYYAMDCWGQGTSVTVSS
VL: DIVLTQSPASLAVSLGQRATISCRASESIEYYGTSLMQWYQQKPGQPPKLLIYAASNVESGVPARFSGSGSGTDFSLNIHPVEEDDIAMYFCQQSRKVPTFGGGTKLEIKR
- OD450 [1]: 1.05 OD450
- OD450 [2]: 0.959 OD450
- OD450 [3]: 0.385 OD450
- OD450 [4]: 0.082 OD450
- OD450 [5]: 0.148 OD450
- OD450 [6]: 0.984 OD450
- OD450 [7]: 1.11 OD450
- OD450 [8]: 1.58 OD450
- OD450 [9]: 0.344 OD450
- OD450 [10]: 0.08 OD450
- OD450 [11]: 0.133 OD450
- OD450 [12]: 1.3 OD450
- OD450 [13]: 0.411 OD450
- OD450 [14]: 0.136 OD450
- OD450 [15]: 1.36 OD450
- OD450 [16]: 1.16 OD450

— patent publication US12625138
